Measurements as given in US20170174769A1 (Regeneron, published 2017).
Residue numbers refer to the chain shown, from its start. Names may count otherwise.

T1: extracellular domain of human KLB expressed with C-terminal HA and hexahistidine tags (human, UniProt Q86Z14 1-996)
T1 construct: also called hKLB-HA-6His; hKLB-HA-6his
T1 sequence: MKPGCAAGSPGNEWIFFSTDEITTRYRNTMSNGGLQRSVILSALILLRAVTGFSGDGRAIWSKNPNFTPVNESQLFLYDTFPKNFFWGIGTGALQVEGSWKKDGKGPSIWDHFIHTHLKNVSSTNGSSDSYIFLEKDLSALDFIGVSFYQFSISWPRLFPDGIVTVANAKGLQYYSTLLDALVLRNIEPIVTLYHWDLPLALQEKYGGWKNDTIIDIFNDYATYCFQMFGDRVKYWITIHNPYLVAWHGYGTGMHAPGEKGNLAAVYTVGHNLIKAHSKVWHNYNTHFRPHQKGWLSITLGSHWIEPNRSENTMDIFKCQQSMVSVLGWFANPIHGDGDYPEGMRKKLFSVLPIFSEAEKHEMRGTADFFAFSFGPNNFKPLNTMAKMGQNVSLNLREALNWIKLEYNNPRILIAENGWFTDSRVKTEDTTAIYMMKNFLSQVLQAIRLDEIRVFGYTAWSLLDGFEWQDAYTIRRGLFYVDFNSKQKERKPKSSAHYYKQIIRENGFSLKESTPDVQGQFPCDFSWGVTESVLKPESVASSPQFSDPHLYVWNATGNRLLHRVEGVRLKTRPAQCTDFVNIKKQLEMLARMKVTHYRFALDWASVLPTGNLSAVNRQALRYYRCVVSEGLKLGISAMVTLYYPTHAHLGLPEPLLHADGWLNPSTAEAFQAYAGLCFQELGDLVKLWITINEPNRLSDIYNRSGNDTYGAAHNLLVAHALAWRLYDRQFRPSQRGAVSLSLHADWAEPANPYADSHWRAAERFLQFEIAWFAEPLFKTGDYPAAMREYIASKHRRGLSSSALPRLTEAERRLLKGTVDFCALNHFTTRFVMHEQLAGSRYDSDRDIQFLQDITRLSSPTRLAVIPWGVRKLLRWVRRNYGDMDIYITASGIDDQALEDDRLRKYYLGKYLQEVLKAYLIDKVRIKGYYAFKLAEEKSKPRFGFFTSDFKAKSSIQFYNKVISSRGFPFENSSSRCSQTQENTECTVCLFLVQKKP

T2: extracellular domain of human FGFR1c expressed with C-terminal V5 and hexahistidine tags (human, UniProt P11362 22-376)
T2 construct: also called hFGFR1c-V5-6His
T2 sequence: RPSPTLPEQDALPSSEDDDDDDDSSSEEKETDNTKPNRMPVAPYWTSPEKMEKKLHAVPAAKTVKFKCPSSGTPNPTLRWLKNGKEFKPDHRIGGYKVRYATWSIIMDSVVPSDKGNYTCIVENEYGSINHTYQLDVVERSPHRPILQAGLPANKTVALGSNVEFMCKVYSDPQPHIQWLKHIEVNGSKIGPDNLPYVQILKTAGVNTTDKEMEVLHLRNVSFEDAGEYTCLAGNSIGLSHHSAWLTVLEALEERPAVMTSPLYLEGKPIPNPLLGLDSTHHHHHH

B1: H4H8880P (antibody, V domains shown)
VH: EVQLVESGGGVVQPGGSLRLSCAASGFTFSLYAMSWVRQAPGKGLEWVSAISGSAHGAYYADSVKGRFTISRDNSKNSLYLQMNSLRAEDTAIYYCAKDLVIAVAGTFDYWGQGTLVTVSS
VL: DIQMTQSPSSLSASVGDRVTITCRASQIISTYLNWYQQKPGKAPKILIYTASSLKSGVPSRFSGSGSGTDFTLTISSLQPEDFATYYCQQTYSSPRFTFGPGTKVDIK
notes: human IgG4 Fc (H4H prefix)
B2: H1M8115N (antibody, V domains shown)
VH: QVQLVQSGAEVKKPGSSVKVSCKASGGTFSTYEISWVRQAPGQGLEWMGGIIPVFGTTHYAQKFQDSVTITTDESTGTAFMELSSLKSEDTAVYYCARGGAGGDNWGQGTLVTVSS
VL: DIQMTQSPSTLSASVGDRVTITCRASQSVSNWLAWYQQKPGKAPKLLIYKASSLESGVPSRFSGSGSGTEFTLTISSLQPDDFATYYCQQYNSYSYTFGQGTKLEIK
notes: H1M Fc prefix (mouse Fc)
B3: H4H8878P (antibody, V domains shown)
VH: QVQLVESGGGVVQPGRSLRLSCAASGFTLNTYGMHWIRQTPGKGLEWVSLISYDETKEYYVDSVKGRFTISRDNSKNTLYLQMNSVRVEDTAVYYCAKPLTGSTDYYYGLDVWGQGTTVTVSS
VL: DIQMTQSPSYVSASVGDRVIITCRASQDISSWLAWYQQKPGKAPKLLIYVTSSLESGVPSRFSGSGSGTDFTLTISGLQPEDFATYYCQQVKSFPPTFGPGTKVDIK
notes: human IgG4 Fc (H4H prefix)
B4: H4H8837P (antibody, V domains shown)
VH: QVQLVESGGGVVQPGRSLRLSCAASGFTFNSYAMHWVRQAPGMGLEWVAVISSDGSNKYYADSVRGRFTVSRDNSKNTLYLQMNSLRSEDTAVYYCAKDGRGYSSFSHFGMDVWGQGTTVTVSS
VL: DIQMTQSPSTLSASVGDRVTITCRASQSIGSWLAWYQQKPGKAPKLLIYKTSSLESGVPSRFSGSGSGTEFTLTISSLQPDDFASYYCQQYNSYSFGQGTKVEIK
notes: human IgG4 Fc (H4H prefix)
B5: H4H8852P (antibody, V domains shown)
VH: QVQLQESGPGLVKPSETLSLTCTVSGGSISSYYWSWIRQPPGKGLEWIGYIYSSGIIKYNPSLKSRVTISADTSKNQFSLKLSSVTAADTAVYYCARHGIFGVMEYFQRWGQGTLVTVSS
VL: DIQMTQSPSSLSASIGDRVTITCQASQDIGNFLNWYQQKPGKAPTLLIYDASNMETGVPSRFSGSGSGTYFTFTISSLQPEDVATYYCQQYDNLPLTFGGGTKVEIK
notes: human IgG4 Fc (H4H prefix)
B6: H4H8871P (antibody, V domains shown)
VH: B5 VH with G27A
VL: B5 VL with Q37H, S63R, T74I
notes: human IgG4 Fc (H4H prefix)
B7: H4H8856P (antibody, V domains shown)
VH: B5 VH with G49A, S53Y, I57T
VL: B5 VL with G30S, A51V, S67Y, Y70D, F73L, Q79K, V83I, L94I
notes: human IgG4 Fc (H4H prefix)

Each binder was assayed against T3, human KLB and human FGFR1c co-expressed on HEK293/hKLB/hFGFR1c/SRE-luc cells (human, UniProt Q86Z14 1-1044; P11362 22-822) (assay: cell-based or functional assay).

Row | Binder | IC50, inhibition of 1 nM hFGF21 [pM] | Maximum Inhibition (%) of 1 nM hFGF21 [%]
1 | B1 | 150 | 39
2 | B2 | 90 | 65
3 | B3 | 230 | 38
4 | B4 | 80 | 51
5 | B5 | 380 | 101
6 | B6 | 380 | 92
7 | B7 | 650 | 91

Each binder was assayed against T1, extracellular domain of human KLB … (assay: SPR, mAb captured, 37 C).
Description: (§1) Equilibrium dissociation constants (KD values) for human KLB or human FGFR1c binding to purified anti-KLB/FGFR1c monoclonal antibodies were determined using a real-time surface plasmon resonance biosensor using a Biacore T-200 or 4000 instrument. The Biacore sensor surface was derivatized by amine coupling with either a polyclonal rabbit anti-mouse antibody (GE, # BR-1008-38) or with a monoclonal mouse anti-human Fc antibody (GE, # BR-1008-39) to capture anti-KLB/FGFR1c monoclonal antibodies expressed with either a mouse Fc or a human Fc, respectively. All Biacore binding studies were performed in a buffer composed of 0.01M HEPES pH 7.4, 0.15M NaCl, 3mM EDTA, 0.05% v/v Surfactant P20 (HBST running buffer). […] Association of hKLB-HA-6His or hFGFR1c-V5-6His to the captured monoclonal antibody was monitored for 3.5 to 4 minutes and the dissociation of hKLB-HA-6His or hFGFR1c-V5-6His in HBST running buffer was monitored for 8-12 minutes. All the binding kinetics experiments were performed at 25° C. or 37° C. Kinetic association (kₐ) and dissociation (kd) rate constants were determined by fitting the real-time sensorgrams to a 1:1 binding model using Scrubber 2.0c curve fitting software. Binding dissociation equilibrium constants (KD) and dissociative half-lives (t½) were calculated from the kinetic rate constants as: […]

Row | Binder | 20 nM hKLB-HA-6His Bind (RU) | Kd [nM] | koff [s⁻¹] | kon [M⁻¹ s⁻¹] | t1/2 [min]
8 | B1 | 148 | 0.945 | 0.000526 | 556000 | 22
9 | B2 | 118 | 0.206 | 0.000144 | 699000 | 80.3
10 | B3 | 101 | 0.305 | 0.000241 | 790000 | 48
11 | B4 | 372 | 0.401 | 0.000128 | 320000 | 90.1
12 | B5 | 5.1 |  |  |  | 
13 | B6 | -0.9 |  |  |  | 
14 | B7 | -0.5 |  |  |  | 

What follows are binders tested against T2, extracellular domain of human FGFR1c … (assay: SPR, mAb captured, 37 C).
Description: as §1

Row | Binder | 180 nM hFGFR1c-V5-6His Bind (RU)
15 | B1 | 0.1
16 | B2 | 0.4
17 | B3 | 0.8
18 | B4 | 0.1
19 | B5 | 1
20 | B6 | -1.4
21 | B7 | 0.3

Each binder was assayed against T3, human KLB and human FGFR1c co-expressed … (assay: FACS on stable HEK293 cells).
Description: To determine binding specificity of the monoclonal anti-KLB/FGFR1c antibodies, the antibodies were tested in a fluorescence-activated cell sorting (FACS) binding assay to cell lines expressing human FGFR1c, human KLB, and both human FGFR1c and human KLB. HEK293 cell lines were generated that stably express full-length human FGFR1c (hFGFR1c; SEQ ID NO:433) or full-length human KLB (hKLB; SEQ ID NO:434) or both human FGFR1c and human KLB, along with a luciferase reporter [SRE (serum response element)-luciferase, SA Bioscience, #CLS-010L]. The resulting cell lines, referred to as HEK293/hFGFR1c/SRE-luc, HEK293/hKLB/SRE-luc, and HEK293/hKLB/hFGFR1c/SRE-luc, respectively, were maintained in DMEM supplemented with 10% FBS, NEAA, penicillin/streptomycin, 1 μg/mL puromycin and […] hygromycin B, 1 μg/mL puromycin and 500 μg/mL G418, or all three antibiotics.
For the FACS analysis, HEK293 parental, HEK293/hFGFR1c/SRE-luc, HEK293/hKLB/SRE-luc, and HEK293/hKLB/hFGFR1c/SRE-luc cells were dissociated and plated onto 96-well v-bottom plates at 5 x 10⁵ cells/well in PBS containing 1% FBS. […] Cells were filtered and subsequently analyzed on a Hypercyte Flow Cytometer (Intellicyt Corp.). Unstained and secondary antibody alone controls were also tested for binding to all cell lines. The results were analyzed using FlowJo version 9.52 software and geometric mean (Geom. Mean) of fluorescence for viable cells was determined. Geom. mean of fluorescence for each antibody was then normalized to Geom. mean of unstained cells to obtain relative binding of antibody (binding ratios) per each cell type.

Row | Binder | binding ratio to unstained cells [fold]
22 | B1 | 32
23 | B2 | 33
24 | B3 | 35
25 | B4 | 33
26 | B5 | 33
27 | B6 | 33
28 | B7 | 30
